Source: US20050176123A1, “Protease inhibitor” (Morinaga Milk Industry Co., Ltd., priority 2002, published 2005)

How the values were obtained:
Assay in all cases: cysteine protease inhibitory activity (Z-Phe-Arg-MCA fluorescence, method of Barrett et al.)
Format in all cases: biochemical
[1] = target: T1, cathepsin L (Homo sapiens, UniProt P07711)
T1 construct: purchased Wako Pure Chemical Industries, Ltd
Protocol: (§1) Inhibitory activities against cysteine proteases including papain, cathepsin B, cathepsin L and cathepsin S (these proteases are available from Wako Pure Chemical Industries, Ltd.) were determined using commercially available bovine lactoferrin (manufactured by Morinaga Milk Industry Co., Ltd.) as a test sample. The inhibitory activity was measured with reference to the method by Barrett et al. (“Methods in Enzymology,” Vol. 80, p 535-561, 1981) as described below. Namely, Z-Phe-Arg-MCA (final concentration of […]: manufactured by Peptide Institute, Inc.) was added as a substrate to 0.1 M acetic acid buffer solution (pH 5.5) in which sample was dissolved at each concentration. Then, cysteine protease (a protease selected from papain, cathepsin B, cathepsin L and cathepsin S in the present test: manufactured by Wako Pure Chemical Industries, Ltd.) solution (final concentration: 15 units/ml) was added, the whole solution was mixed and the reaction was carried out at 37° C. for 10 minutes. Subsequently, fluorescence intensity (excitation wavelength: 370 nm, emission wavelength: 460 nm) of AMC (7-Amino-4-Methyl-Coumarin) released from the digested substrate was measured with a fluorescence spectrometer (manufactured by Hitachi, Ltd.).

[2] = target: T2, cathepsin B (Homo sapiens, UniProt P07858)
T2 construct: purchased Wako Pure Chemical Industries, Ltd
Protocol: as §1

[3] = target: T3, papain (Carica papaya, UniProt P00784); conditions: pH 5.5, 37° C., 10 minutes
T3 construct: purchased Wako Pure Chemical Industries, Ltd
T3 sequence (P00784 134-345): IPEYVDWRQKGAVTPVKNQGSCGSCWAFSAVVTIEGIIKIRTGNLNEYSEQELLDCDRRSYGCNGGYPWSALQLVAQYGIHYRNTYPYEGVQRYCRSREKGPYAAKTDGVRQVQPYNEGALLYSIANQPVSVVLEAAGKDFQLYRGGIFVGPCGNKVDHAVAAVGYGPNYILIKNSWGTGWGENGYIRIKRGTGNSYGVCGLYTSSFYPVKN
Protocol: as §1

[4] = inhibitor 10^−3 M, pH 5.5, 37° C., 10 minutes

T1 sequence (P07711 114-333, species assumed): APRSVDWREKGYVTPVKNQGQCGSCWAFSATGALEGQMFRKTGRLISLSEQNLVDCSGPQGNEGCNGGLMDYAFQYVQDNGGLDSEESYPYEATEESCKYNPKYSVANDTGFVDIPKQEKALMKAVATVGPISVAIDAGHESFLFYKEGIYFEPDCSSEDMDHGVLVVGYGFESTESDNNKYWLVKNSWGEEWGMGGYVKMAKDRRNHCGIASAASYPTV

bovine lactoferrin peptide Y676-K692: peptide having amino acid numbers 676-692 of SEQ ID No. 2 (bovine lactoferrin), chemically synthesized (YEEYLGTEYVTAIANLK; sig_peptide (1)...(19) Lactoferrin; listed as Bos taurus)
cysteine protease-inhibitory activity compared with human lactoferrin peptide Y679-K695 ([1]; similar test to Test Example 5): almost equal to the human lactoferrin peptide Y679-K695
cysteine protease-inhibitory activity compared with human lactoferrin peptide Y679-K695 ([2]; similar test to Test Example 5): almost equal to the human lactoferrin peptide Y679-K695

human lactoferrin peptide Y679-K695: peptide having amino acid numbers 679-695 of SEQ ID No. 1 (human lactoferrin), chemically synthesized (YEKYLGPQYVAGITNLK; sig_peptide (1)...(19) Lactoferrin; listed as Homo Sapiens)
inhibition of cysteine protease activity [1, 4]: almost completely inhibited
inhibition rate at each concentration (%) ([1]; inhibitor 10^−4M, pH 5.5, 37° C., 10 minutes): more than 50%
inhibition of cysteine protease activity ([3]; inhibitor 10^−3 M): almost completely inhibited
inhibition rate at each concentration (%) ([3]; inhibitor 10^−4M): more than 50%
inhibition of cysteine protease activity [2, 4]: ~60%
